# Test results taken from paper PMC9768917.
# Key:
# [1] = molecular target: HALO-FhM28B (Fasciola hepatica M28B metalloprotease, wild type, with N-terminal His-Strep-HALO tag) (Fasciola hepatica); assay: SEC; final purification step on a Superose 6 column, 20 mM MOPS, 150 mM NaCl, pH 7.4; elution peak compared with the expected dimeric mass
# [2] = molecular target: HALO-FhM28B (E413M) (Fasciola hepatica); assay: as above
Substance,stoichiometry N [1],stoichiometry N [2]
"HALO-FhM28B (Fasciola hepatica M28B metalloprotease, wild type, with N-terminal His-Strep-HALO tag) (enzyme)",2,–
HALO-FhM28B (E413M) (enzyme),–,2
